Laboratory results from the supplement of paper PMC9112550, “Optimization of the antimicrobial peptide Bac7 by deep mutational scanning” (BMC Biology, 2022).

Test system: Escherichia coli TOP10
Experiment: shrunken log2 fold change of peptide-encoding DNA abundance (4.5 h post-induction vs induction); higher = less antimicrobial activity (less host growth inhibition)
Details: time post-induction: 4.5 h; library: site-saturation at positions 5, 18, 19, 20
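Also: peptides expressed intracellularly from a pBAD plasmid library in pooled LB shake-flask culture, induced with 0.3% L-arabinose, DNA abundance read by NGS, three biological replicates, DESeq2 with apeglm shrinkage.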

Sequence: RRIRWRPPRLPRPRPRPHTRPRP
- shrunken log2 fold change: -0.0595

Sequence: RRIRQRPPRLPRPRPRPHGMPRP
- shrunken log2 fold change: 0.0346

Sequence: RRIRLRPPRLPRPRPRPGPFPRP
- shrunken log2 fold change: 0.137

Sequence: RRIRIRPPRLPRPRPRPYITPRP
- shrunken log2 fold change: -1.34

Sequence: RRIRRRPPRLPRPRPRPWWIPRP
- shrunken log2 fold change: 0.249

Sequence: RRIRLRPPRLPRPRPRPNTYPRP
- shrunken log2 fold change: -0.522

Sequence: RRIRSRPPRLPRPRPRPVPKPRP
- shrunken log2 fold change: 0.232

Sequence: RRIRARPPRLPRPRPRPCYCPRP
- shrunken log2 fold change: -0.0765

Sequence: RRIRSRPPRLPRPRPRPMTTPRP
- shrunken log2 fold change: 0.572

Sequence: RRIRERPPRLPRPRPRPNTTPRP
- shrunken log2 fold change: 0.123

Sequence: RRIRCRPPRLPRPRPRPNDNPRP
- shrunken log2 fold change: -0.692

Sequence: RRIRGRPPRLPRPRPRPQTKPRP
- shrunken log2 fold change: 0.8

Sequence: RRIRDRPPRLPRPRPRPAEVPRP
- shrunken log2 fold change: 0.46

Sequence: RRIRMRPPRLPRPRPRPCWGPRP
- shrunken log2 fold change: -0.078

Sequence: RRIRSRPPRLPRPRPRPHLKPRP
- shrunken log2 fold change: -0.137

Sequence: RRIRIRPPRLPRPRPRPAHNPRP
- shrunken log2 fold change: -0.271

Sequence: RRIRTRPPRLPRPRPRPMWLPRP
- shrunken log2 fold change: -0.0194

Sequence: RRIRARPPRLPRPRPRPVEWPRP
- shrunken log2 fold change: 0.544

Sequence: RRIRHRPPRLPRPRPRPHHNPRP
- shrunken log2 fold change: -0.672

Sequence: RRIRIRPPRLPRPRPRPMGPPRP
- shrunken log2 fold change: 0.0284

Sequence: RRIRRRPPRLPRPRPRPKHYPRP
- shrunken log2 fold change: 0.227

Sequence: RRIRSRPPRLPRPRPRPYVHPRP
- shrunken log2 fold change: -0.175

Sequence: RRIRYRPPRLPRPRPRPSTWPRP
- shrunken log2 fold change: -0.647

Sequence: RRIRTRPPRLPRPRPRPSWQPRP
- shrunken log2 fold change: -0.073

Sequence: RRIRMRPPRLPRPRPRPSCIPRP
- shrunken log2 fold change: -0.27

Sequence: RRIRGRPPRLPRPRPRPPHMPRP
- shrunken log2 fold change: 0.489

Sequence: RRIRMRPPRLPRPRPRPGYEPRP
- shrunken log2 fold change: 0.247

Sequence: RRIRQRPPRLPRPRPRPTYFPRP
- shrunken log2 fold change: -0.0458

Sequence: RRIRARPPRLPRPRPRPQLWPRP
- shrunken log2 fold change: 0.569

Sequence: RRIRKRPPRLPRPRPRPSQPPRP
- shrunken log2 fold change: 0.0235

Sequence: RRIRCRPPRLPRPRPRPQGPPRP
- shrunken log2 fold change: 0.353

Sequence: RRIRKRPPRLPRPRPRPLVIPRP
- shrunken log2 fold change: -0.0927

Sequence: RRIRERPPRLPRPRPRPWYVPRP
- shrunken log2 fold change: -0.612

Sequence: RRIRYRPPRLPRPRPRPPYYPRP
- shrunken log2 fold change: -0.214

Sequence: RRIRKRPPRLPRPRPRPMQMPRP
- shrunken log2 fold change: -0.00145

Sequence: RRIRDRPPRLPRPRPRPCDTPRP
- shrunken log2 fold change: -0.157

Sequence: RRIRARPPRLPRPRPRPAMQPRP
- shrunken log2 fold change: 0.723

Sequence: RRIRTRPPRLPRPRPRPCVIPRP
- shrunken log2 fold change: -0.029

Sequence: RRIRNRPPRLPRPRPRPEMVPRP
- shrunken log2 fold change: -0.0225

Sequence: RRIRMRPPRLPRPRPRPIDAPRP
- shrunken log2 fold change: 0.616

Sequence: RRIRHRPPRLPRPRPRPHVQPRP
- shrunken log2 fold change: -0.128

Sequence: RRIRMRPPRLPRPRPRPVFNPRP
- shrunken log2 fold change: -0.0958

Sequence: RRIRPRPPRLPRPRPRPNDRPRP
- shrunken log2 fold change: -0.0965

Sequence: RRIRYRPPRLPRPRPRPSGVPRP
- shrunken log2 fold change: -0.0951

Sequence: RRIRMRPPRLPRPRPRPLNHPRP
- shrunken log2 fold change: -0.0957

Sequence: RRIRNRPPRLPRPRPRPDVYPRP
- shrunken log2 fold change: -0.0277

Sequence: RRIRMRPPRLPRPRPRPRKIPRP
- shrunken log2 fold change: 0.322

Sequence: RRIRQRPPRLPRPRPRPDDAPRP
- shrunken log2 fold change: -0.0705

Sequence: RRIRYRPPRLPRPRPRPRNCPRP
- shrunken log2 fold change: -0.234

Sequence: RRIRTRPPRLPRPRPRPTFYPRP
- shrunken log2 fold change: -0.0485

Sequence: RRIRSRPPRLPRPRPRPCSSPRP
- shrunken log2 fold change: -0.134

Sequence: RRIRMRPPRLPRPRPRPMYEPRP
- shrunken log2 fold change: 0.221

Sequence: RRIRIRPPRLPRPRPRPGFNPRP
- shrunken log2 fold change: -0.135

Sequence: RRIRIRPPRLPRPRPRPNKMPRP
- shrunken log2 fold change: -0.464

Sequence: RRIRARPPRLPRPRPRPGKHPRP
- shrunken log2 fold change: 0.089

Sequence: RRIRPRPPRLPRPRPRPKNKPRP
- shrunken log2 fold change: -0.187

Sequence: RRIRQRPPRLPRPRPRPSMCPRP
- shrunken log2 fold change: -0.194

Sequence: RRIRFRPPRLPRPRPRPVHKPRP
- shrunken log2 fold change: -0.142

Sequence: RRIRARPPRLPRPRPRPHNWPRP
- shrunken log2 fold change: 0.129

Sequence: RRIRFRPPRLPRPRPRPKVPPRP
- shrunken log2 fold change: -0.109

Sequence: RRIRTRPPRLPRPRPRPQDCPRP
- shrunken log2 fold change: 0.0249

Sequence: RRIRWRPPRLPRPRPRPGWHPRP
- shrunken log2 fold change: 0.298

Sequence: RRIRHRPPRLPRPRPRPYPDPRP
- shrunken log2 fold change: 0.0372

Sequence: RRIRDRPPRLPRPRPRPWRDPRP
- shrunken log2 fold change: -0.0505

Sequence: RRIRIRPPRLPRPRPRPRCHPRP
- shrunken log2 fold change: -0.466

Sequence: RRIRYRPPRLPRPRPRPSVKPRP
- shrunken log2 fold change: -0.119

Sequence: RRIRFRPPRLPRPRPRPGILPRP
- shrunken log2 fold change: -0.187

Sequence: RRIRGRPPRLPRPRPRPSGHPRP
- shrunken log2 fold change: -0.202

Sequence: RRIRWRPPRLPRPRPRPRLPPRP
- shrunken log2 fold change: 0.471

Sequence: RRIRARPPRLPRPRPRPHNMPRP
- shrunken log2 fold change: -0.446

Sequence: RRIRFRPPRLPRPRPRPRRKPRP
- shrunken log2 fold change: 0.246

Sequence: RRIRYRPPRLPRPRPRPCYEPRP
- shrunken log2 fold change: -0.246

Sequence: RRIRVRPPRLPRPRPRPGTTPRP
- shrunken log2 fold change: -0.108

Sequence: RRIRPRPPRLPRPRPRPSWDPRP
- shrunken log2 fold change: -0.0474

Sequence: RRIRARPPRLPRPRPRPCPYPRP
- shrunken log2 fold change: -0.359

Sequence: RRIRSRPPRLPRPRPRPYWGPRP
- shrunken log2 fold change: -0.0576

Sequence: RRIRVRPPRLPRPRPRPTMLPRP
- shrunken log2 fold change: -0.205

Sequence: RRIRNRPPRLPRPRPRPHTTPRP
- shrunken log2 fold change: -0.235

Sequence: RRIRFRPPRLPRPRPRPFMNPRP
- shrunken log2 fold change: -0.03

Sequence: RRIRPRPPRLPRPRPRPTWRPRP
- shrunken log2 fold change: 0.639

Sequence: RRIRYRPPRLPRPRPRPVNTPRP
- shrunken log2 fold change: -0.473

Sequence: RRIRDRPPRLPRPRPRPEFHPRP
- shrunken log2 fold change: 0.858

Sequence: RRIRWRPPRLPRPRPRPTWGPRP
- shrunken log2 fold change: 0.356

Sequence: RRIRHRPPRLPRPRPRPNLTPRP
- shrunken log2 fold change: -0.588

Sequence: RRIRVRPPRLPRPRPRPMFFPRP
- shrunken log2 fold change: -0.333

Sequence: RRIRARPPRLPRPRPRPFAKPRP
- shrunken log2 fold change: 0.349

Sequence: RRIRRRPPRLPRPRPRPHTKPRP
- shrunken log2 fold change: 0.179

Sequence: RRIRIRPPRLPRPRPRPKFWPRP
- shrunken log2 fold change: -0.0477

Sequence: RRIRKRPPRLPRPRPRPGASPRP
- shrunken log2 fold change: 0.787

Sequence: RRIRMRPPRLPRPRPRPNYIPRP
- shrunken log2 fold change: -0.492

Sequence: RRIRERPPRLPRPRPRPWGCPRP
- shrunken log2 fold change: -0.364
